Values quoted from earlier work in article PMC11816975, “Bioactive Peptides from Milk Proteins with Antioxidant, Anti-Inflammatory, and Antihypertensive Activities” (Foods, 2025).

Key:
[1] = design: method as in PMID 23768340; details: at 100 µg/mL
[2] = tested on: NO production; design: method as in PMID 23768340; details: at 100 µg/mL

B1: cLF: isolated camel lactoferrin (protein, UniProt Q9TUM0 20-708, looked up)
Lactotransferrin: ASKKSVRWCTTSPAESSKCAQWQRRMKKVRGPSVTCVKKTSRFECIQAISTEKADAVTLDGGLVYDAGLDPYKLRPIAAEVYGTENNPQTHYYAVAIAKKGTNFQLNQLQGLKSCHTGLGRSAGWNIPMGLLRPFLDWTGPPEPLQKAVAKFFSASCVPCVDGKEYPNLCQLCAGTGENKCACSSQEPYFGYSGAFKCLQDGAGDVAFVKDSTVFESLPAKADRDQYELLCPNNTRKPVDAFQECHLARVPSHAVVARSVNGKEDLIWKLLVKAQEKFGRGKPSGFQLFGSPAGQKDLLFKDSALGLLRISSKIDSGLYLGSNYITAIRGLRETAAEVELRRAQVVWCAVGSDEQLKCQEWSRQSNQSVVCATASTTEDCIALVLKGEADALSLDGGYIYIAGKCGLVPVLAESQQSPESSGLDCVHRPVKGYLAVAVVRKANDKITWNSLRGKKSCHTAVDRTAGWNIPMGLLSKNTDSCRFDEFLSQSCAPGSDPRSKLCALCAGNEEGQNKCVPNSSERYYGYTGAFRCLAENVGDVAFVKDVTVLDNTDGKNTEQWAKDLKLGDFELLCLNGTRKPVTEAESCHLAVAPNHAVVSRIDKVAHLEQVLLRQQAHFGRNGRDCPGKFCLFQSKTKNLLFNDNTECLAKLQGKTTYEEYLGPQYVTAIAKLRRCSTSPLLEACAFLMR
At 100 µg/mL, ref Habib et al. 55
  DPPH• inhibition: 2.77%
[1]
  ferric reducing power: 0.317 mM Fe^2+
[2]
  inhibition of NO production: about 5%

B2: bLF: bovine lactoferrin, orthologue compared with eLF (protein, UniProt P24627 20-708, looked up)
Lactotransferrin: APRKNVRWCTISQPEWFKCRRWQWRMKKLGAPSITCVRRAFALECIRAIAEKKADAVTLDGGMVFEAGRDPYKLRPVAAEIYGTKESPQTHYYAVAVVKKGSNFQLDQLQGRKSCHTGLGRSAGWIIPMGILRPYLSWTESLEPLQGAVAKFFSASCVPCIDRQAYPNLCQLCKGEGENQCACSSREPYFGYSGAFKCLQDGAGDVAFVKETTVFENLPEKADRDQYELLCLNNSRAPVDAFKECHLAQVPSHAVVARSVDGKEDLIWKLLSKAQEKFGKNKSRSFQLFGSPPGQRDLLFKDSALGFLRIPSKVDSALYLGSRYLTTLKNLRETAEEVKARYTRVVWCAVGPEEQKKCQQWSQQSGQNVTCATASTTDDCIVLVLKGEADALNLDGGYIYTAGKCGLVPVLAENRKSSKHSSLDCVLRPTEGYLAVAVVKKANEGLTWNSLKDKKSCHTAVDRTAGWNIPMGLIVNQTGSCAFDEFFSQSCAPGADPKSRLCALCAGDDQGLDKCVPNSKEKYYGYTGAFRCLAEDVGDVAFVKNDTVWENTNGESTADWAKNLNREDFRLLCLDGTRKPVTEAQSCHLAVAPNHAVVSRSDRAAHVKQVLLHQQALFGKNGKNCPDKFCLFKSETKNLLFNDNTECLAKLGGRPTYEEYLGTEYVTAIANLKKCSTSPLLEACAFLTR
At 500 µg/mL
  DPPH• radical scavenging capacity: approximately 33%
